Reference: paper PMC5715260

Experiments:
Experiment in all cases: high performance liquid chromatography; mass of the native TTR compared with the subunit mass; data not shown
[1] = target: pigC/crocTTR (Crocodylus porosus TTR with the C-terminal sequence changed to that of S. scrofa TTR) (Crocodylus porosus | Sus scrofa) (UniProt O55245)
[2] = target: pigC/huTTR (human TTR with the C-terminal sequence changed to that of Sus scrofa TTR) (human | Sus scrofa)
[3] = target: xenoN/pigC/huTTR (human TTR with the N-terminal and C-terminal sequences changed to those of Xenopus laevis and S. scrofa, respectively) (Xenopus laevis | human | Sus scrofa) (UniProt B7ZS96)

Sequence of xenoN/pigC/huTTR (human TTR with the N-terminal and C-terminal sequences changed to those of Xenopus laevis and S. scrofa, respectively) (P50390 whole entry, looked up): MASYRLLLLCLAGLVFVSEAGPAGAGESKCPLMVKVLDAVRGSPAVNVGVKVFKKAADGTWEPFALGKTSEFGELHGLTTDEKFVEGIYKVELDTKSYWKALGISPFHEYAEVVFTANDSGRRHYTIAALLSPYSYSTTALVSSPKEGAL
Sequence of xenoN/pigC/huTTR (human TTR with the N-terminal and C-terminal sequences changed to those of Xenopus laevis and S. scrofa, respectively) (B7ZS96 whole entry, looked up): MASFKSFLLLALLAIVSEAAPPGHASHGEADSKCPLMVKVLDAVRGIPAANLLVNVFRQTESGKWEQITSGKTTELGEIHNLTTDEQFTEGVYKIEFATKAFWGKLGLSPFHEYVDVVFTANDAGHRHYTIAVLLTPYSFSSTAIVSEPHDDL
Sequence of pigC/huTTR (human TTR with the C-terminal sequence changed to that of Sus scrofa TTR) (P50390 whole entry): as the sequence (P50390 whole entry, looked up) above

Q: With “pigC/crocTTR (Crocodylus porosus TTR with the C-terminal sequence changed to that of S. scrofa TTR) (from UniProt O55245 21-114; P50390 135-150)” as the substance, how does the stoichiometry N [1] read?
A: 4

Q: Which stoichiometry N [2] does the source give for “pigC/huTTR (human TTR with the C-terminal sequence changed to that of Sus scrofa TTR) (from UniProt P50390 141-150)” here?
A: 4

Q: Which stoichiometry N [3] does the source give for “xenoN/pigC/huTTR (human TTR with the N-terminal and C-terminal sequences changed to those of Xenopus laevis and S. scrofa, respectively) (from UniProt B7ZS96 1-9; P50390 141-150)” here?
A: 4
